Assay: yeast display, Sf9 membrane polyspecificity reagent, FACS + sequencing; frameworks hold sequencing errors
Summary of the method: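 Galactose-induced (36–48 hours) yeast carrying a synthetic nanobody display library were exposed to 10% biotinylated, detergent-solubilized Sf9 membrane reagent at 4 °C for 1 hour. FACS followed streptavidin microbead enrichment, using low and high (top ~1%) gates for expression (anti-HA) and reagent binding (streptavidin). Colony PCR, MiSeq 2 × 250 sequencing and CDR-length filtering followed. Labels for polyreactivity reflect the gate of origin.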

Sequence | polyreactivity (PSR sort gate)
QVKLVESGGGLVQAGGSLRLSFAASGSIFFIYAMGWYRQETGKERELVASINSGGTTSNADSVKGRFTISRDNAKNTVYLQLNSLKPADTAVYYCATRGIVGILDSLSEEYYYWGQGTQVSVSS | low polyreactivity
QVKLVESGGGLVQAGGSLRLSSDASGSIFLYNAMGWYRQAPGKERELVADISWSGGSTYYADSVKGRFTISRVNEKYTVYLQMNSLKPEDTAVYYCNAVVYWFSTSYVYTYDYWGQGTQVTVSS | high polyreactivity
QVKLVESGGGLVQAGRSLRLSFAASGSTFLYYGMGWYRQAPGKERELVATITWRGGRTYYADSVKGRFTISRDNAKNTVYLQMNSLKPEDTAVYYCAARVVGSYRKPYPYGLYYWGQGTQVTVSS | high polyreactivity
QVKLVESGGRLVQAGGSLRLSCAASGRNFYNYAMGWYRQAPGKERELVAAISKSGGRTYYADSVKGRFTISRDNAKNTVYLQMNSLKPEDTAVYYCAAEPFIPDQSRYYYWGQGSQVTVSS | high polyreactivity
QVKLVESGGRLVQAGGSLRLSCAASGSIFYYYAMGWYRQAPVKERELVAAITNYADSVKGRFTISRDNAKNTVYLQMNSLKPEDTAVYYCAADWWRVEMDYWGQGTQVTVSS | low polyreactivity
QVKLVESGGVLVQAGGSLRLSCAASGRIFGTYAMGWYRQAPGKERELVASISYSDGSTYADSVKGRFTISRDNAKNTVYLQMNSLKPEDTAVYYCAADVYYYAQCEDGYWGQGTQVTVSS | low polyreactivity
QVKLVESGRGLVQAGGSLRVSCAASGRIFQRYVMGWYRQAPGKERELVAAITWSGGSTYADSVKGRFTISRDNAKNTVYLQMNSLKTEDTAVYYCAARVPYNYWGMYYLYDYWGQGTQVTVSS | high polyreactivity
QVKLVESGVGLVKAGVSLRLSSAASGFTFYSYAMGCYRQAPGKESELVAAISWSGSRTYYADSVKGRFTISRDNAKNTVYLQMNSLKPEDTGVYYCAAYSYVRYSSWSDYWGLGTQVTVSS | high polyreactivity
QVKLVESRGGLVQAGGSLRLSCAASARIFVHNAKGCYRQAPGKAREFDAAITRRGGSTYADSVKGRFRISRDNAKNTVYLQMTSLKPEDTAVYYCNAESYYGIFRYNYDYWGQGTQVTVSS | high polyreactivity
QVKLVETGGGLVQAGGSLRLSCAASGFIFYKYAMGWYRQAPGKERELVASITSGGITNYADSVKGRFTISRDNAKNTVYLQMNSLKPVDTAVYYCNVRWYSRWLITTDYNYWGQGTQVTVSS | high polyreactivity
QVKRVESGGGLVQAGGSLRLSCAASGIMFSPNDMGRFRQGPGKERELVARITTDGSSTYYADSVKGRFTISRDNAKNTVYLQINSLKPEDTAVYSCNADQLWYSLFDYWGQGTLVTVSS | high polyreactivity
QVLIVESGGGLVQAGGSLRLSCADSGLTLAHYTMGWYRQSPGKERELVAAITFSGGRTYYADSVKGRFTISRDNAKNTVYLQMNSLKPEDTAVYYCNDEYQWGGYGYDYWGQGTQVTVSS | low polyreactivity
QVLLEESGGGLVQAGGSLRLSCAASGRIFLRKVMGWYRQAPGKERELVAAISLSGASTYYADSVKGRFTISRDNAKNTVYLQMNCLKPEDTAVYYCAADITILYDYWGQGTQVTVSS | low polyreactivity
QVLLQESGGGLVQAGGSLRLSCAASGNIFSAGGMGWYRQAPVNERELVAGIGTGTSTNYADSVKGRFTISRDNAKNTVYLQMNILKPEDTAVYYCAAAYYSGLSHWYWGQGTQVTVSS | low polyreactivity
QVLLQESGGGLVQAGGSLRLSCAASGNIFSAGGMGWYRQAPVNERELVAGIGTGTSTNYADSVKGRFTISRDNAKNTVYLQMTSLKPEVTAVYYCAAAYYSGLSHWYWGQGTQVTVSS | low polyreactivity
QVLLQESGGGLVQAGGSLRLSCAASGNIFSAGGMGWYRQAPVNERELVAGIGTGTSTNYADSVKGRFTISRDNANNTVYLQMNSLKPEDTAVYYCAAAYYSGLSHWYWGQGTQVTVSS | low polyreactivity
QVLLQESGGGLVQAGGSLRLSCAASGSIFLFYTMGWSRQAPVKEREFVAGITLGTTTYNADSVKGRFTISRDNVKNTVYLQMNSLKPEDTAVYYCAVAVGHYTEFWYWGQGTQVTMSS | high polyreactivity
QVLLQESGGGLVQAGGSLRLSCAASGSIFLFYTMGWYRQAPVKEREFVAGITLGTTTYNADSVKGRFTISRDNVKNTVYLQMNSLKPEATAVYYCAVAVGHYTVFWYWGQGTQVTMSS | high polyreactivity
QVLLQESGGGLVQAGGSLRLSCAASGSIFLFYTMGWYRQAPVKEREFVAGITLGTTTYNADSVKGRFTISRDNVKNTVYLQMNSLKPEDTAVYYFAVAVGHYTEFWYWGQGTQVTMSS | high polyreactivity
QVLLQESGGGLVQAGGSLRLSCAASGTISTDIRMGLYSLAPGKAREFVASIDGCSTTYYADSVKGRFTISRDNAKNTVYLKMNSLKPVDTAMYYCAAREATEFYLYYWGQGTQVTVSS | low polyreactivity
QVLLQESGGGLVQAGGSLRQSCAASGNIFSAGGMGWYRQAPVNERELVAGIGTGTSTNYADSVKGRFTISRDNAKNTVYLQMNSLKPEDTAVYFCAAAFYSGLSHWYWGQGTQVTVSS | low polyreactivity

Sequence | polyreactivity (PSR sort gate)
QVLLQESGGLLQAGCSLRMSCAASGSISTALSMVWYRQAPGKERELVATISDGASTNYADSVKGRFTISRVNAKNTVYLQMNSLKPEDTEVYYCAAQSQYRPDHRYWGQGTQVTVSS | high polyreactivity
QVLLVEAGGGLVQAGGSLRLSCAASGRIFRRYAMGWYRQAPGKERELVAAISSGGGSTYYADSVKGRFTISRDNAKNTVYLQMNSLKPEDTAVYYCNTDFYYDDVSQAHDYWGQGTQVTVSS | high polyreactivity
QVLLVESAVGLVQAVGSLRLSCAASGSICYTNGMGWYRQAPGNERELVASITRSGGSTYYADSVKGRFTISRDNAKNSVYLQMNRLKPEDTAVYYCATSWGYRGLWGLRFDYWGQGTQVSVSS | low polyreactivity
QVLLVESGGGFVQAGGSLRLSCSASGSIFSPYTMGWYRQATGKERELVAAISRGGNTYYADSVKGRFTISRDNAKNTVYLQMNSLKPEDTAVYYCAARAKYDRRTDGTSGYDYWGQGTQVTVSS | low polyreactivity
QVLLVESGGGLVQAGGILRLSCAASGLTFTYYAMGWYRQAPGKERELVAAISRCGTGTYYADSVKGRFTISRDNAKNTVYLHMNSLKPEDTAVYYCATLPGRYFTANEYWGQGTQVTVSS | high polyreactivity
QVLLVESGGGLVQAGGILRLSCAASGNILGYNAMGWSRQAPGKERELVAAISWIGGSTYYADSVKGRFTISRDNAKNTVYLQMNSLKQEDTAVYYCASRYRTYFTYEYWGQVTQVTVSS | low polyreactivity
QVLLVESGGGLVQAGGSHRLSCAASGITIRFYAMGWYRQAPGKEREFHAAISRSGSTYYADSVKGRFTISRDNAKNTVYLHLNSVKPEDTAVYYCAADSYRSAQGLDYWGQGTQVTVSS | high polyreactivity
QVLLVESGGGLVQAGGSLRLSCAASGFTFGVYAMRWYRQAPGKERELVAAISTTVGSTYYADSVKGRFTISRDNAKNTVYLQMNSLKPEDTAVYYCHYPYDYWGQATQVTVSS | low polyreactivity
QVLLVESGGGLVQAGGSLRLSCAASGLTFRYYAMGWYRQAPGKERELVAAITSGGSTYYADSVKGRFTISRDNAKNTVYLQMNSLKPEDTAVYYCNKLLGRTVRHDYWGQGTQVTVSS | high polyreactivity
QVLLVESGGGLVQAGGSLRLSCAASGRTFRGNAMGWYRQAPGKERELVAAISRSGGTTYYADSVKGRFTISRYNAKNTVYLQMNSLKPEDTAVYYCNRGWATWHGPDDYWGQGTQVTVSS | high polyreactivity
QVLLVESGGGLVQAGGSLRLSCAASGRTFYNYSMGWYRQAPGKERELVAAISGGGTTNYADTVKGRFTISRDNAKNTVYLQMNSLKPEDTAVYSCNAARTRWATGYDYWGQGTQVTVSS | low polyreactivity
QVLLVESGGGLVQAGGSLRLSCAASGSIFGAYAMGWYRQAPGKVRELVAAINYGGATTYYADSVKGRYTISRDLAKNTVYLQMNSLKPQDTAVYYCAADNDTDHSSATYGYDYWGQGTQVTVSS | low polyreactivity
QVLLVESGGGLVQAGGSLRLSCAASGSIFGYKDMGWYRQAPGKERELVASITRGGGRTRYADSVKGRFTISRDNAKNTVYLQMNSLKPEDTAVYYCAADKLSYSYVRPPRNHEDYWGQGTQVTVSS | low polyreactivity
QVLLVESGGGLVQAGGSLRLSCAASGSTIRYYAMGWYRQAPGKERELVAAISWRGGSTYYADSVKGRFTISRDNAKYTVYLQMNSLKPEDTAVYYCAVEAVAYGFFHYDYWGQGTQVTVSS | high polyreactivity
QVLLVESGGGLVQAGGSLRLSCSASGNAMGWYRQAPGKERELVAAITRRGGSTYYADSVKGSFTISRDNAKNTVYLQMNSLKPEDTAVYYCADDNPSYNLWYGYWGQGTQVTVSS | low polyreactivity
QVLLVESGGGLVQAGGSLRLSGAASGRTFRRNAIGWYRQAPGKERELVAAISASGGSTYYADSVKGRFTISRDNAMNTVYLEMNSLKPEDTADYYCAAVSQTTYWGQGTQVTVSS | high polyreactivity
QVLLVESGGGLVQAGGSLRVSCAASGFTFYGYAMGWYRQAPGKERELVAARSSTGGRTYYADSVKGRFTISRDNAKNTVYLQMNSLKPEDTAVYYCNKVWRFAEHNYWGQGTQVTVSS | high polyreactivity
QVLLVESGGGLVQAGGSLRVSCAASGSTFPYYAMGWYRQAPGKERELVAAITSSASTYYADSVKGRFTISRDNAKNTVYLQMNSLKPEDTAVYYCAVRTPYRLSRWRVGYWGQGTQVTVSS | high polyreactivity
QVLLVESGGGLVQAGGSLSLSCAASGLIFVNAMGWYRQAPGKEREFVAAITYSTGSTYYADSVKGRFTISRDNAKNTVYLQMNSLKPEDTAFYYCAKDRSGHGTERDDWGQGTQVTVSS | low polyreactivity
QVLLVESGGGLVQAGGSLSLSCAASGRTFFNNAMGWYRQAPGQEREFVAAISRSGSSTYYAVSVKGRFTISRDNAKNTVYLQMNSLKPEHTAVYYCASYLYYYSAYGYWGQGTQVTVSS | high polyreactivity
